This is an account of results in paper doi:10.1101/2022.02.13.480285.

The target of this test is SiaM (M-subunit of Photobacterium profundum SiaQM) (Photobacterium profundum). In words: AUC.

In the case of “SiaQ (Q-subunit of Photobacterium profundum SiaQM) (natural protein)”, the stoichiometry N (SiaQ per SiaM) was found to be 1.
